According to publication PMC5259782, “Allosteric Inhibition of Phosphoenolpyruvate Carboxylases is Determined by a Single Amino Acid Residue in Cyanobacteria” (Scientific Reports, 2017):

How the values were obtained:
SyPEPC [1] = target: T1, SyPEPC (Synechocystis sp. PCC 6803, UniProt P74299); assay: malate dehydrogenase-coupled NADH assay, residual activity; type: biochemical; conditions: read-out: SyPEPC activity (in vitro)
T1 construct: gene ppc
T1 sequence (P74299 1-1034): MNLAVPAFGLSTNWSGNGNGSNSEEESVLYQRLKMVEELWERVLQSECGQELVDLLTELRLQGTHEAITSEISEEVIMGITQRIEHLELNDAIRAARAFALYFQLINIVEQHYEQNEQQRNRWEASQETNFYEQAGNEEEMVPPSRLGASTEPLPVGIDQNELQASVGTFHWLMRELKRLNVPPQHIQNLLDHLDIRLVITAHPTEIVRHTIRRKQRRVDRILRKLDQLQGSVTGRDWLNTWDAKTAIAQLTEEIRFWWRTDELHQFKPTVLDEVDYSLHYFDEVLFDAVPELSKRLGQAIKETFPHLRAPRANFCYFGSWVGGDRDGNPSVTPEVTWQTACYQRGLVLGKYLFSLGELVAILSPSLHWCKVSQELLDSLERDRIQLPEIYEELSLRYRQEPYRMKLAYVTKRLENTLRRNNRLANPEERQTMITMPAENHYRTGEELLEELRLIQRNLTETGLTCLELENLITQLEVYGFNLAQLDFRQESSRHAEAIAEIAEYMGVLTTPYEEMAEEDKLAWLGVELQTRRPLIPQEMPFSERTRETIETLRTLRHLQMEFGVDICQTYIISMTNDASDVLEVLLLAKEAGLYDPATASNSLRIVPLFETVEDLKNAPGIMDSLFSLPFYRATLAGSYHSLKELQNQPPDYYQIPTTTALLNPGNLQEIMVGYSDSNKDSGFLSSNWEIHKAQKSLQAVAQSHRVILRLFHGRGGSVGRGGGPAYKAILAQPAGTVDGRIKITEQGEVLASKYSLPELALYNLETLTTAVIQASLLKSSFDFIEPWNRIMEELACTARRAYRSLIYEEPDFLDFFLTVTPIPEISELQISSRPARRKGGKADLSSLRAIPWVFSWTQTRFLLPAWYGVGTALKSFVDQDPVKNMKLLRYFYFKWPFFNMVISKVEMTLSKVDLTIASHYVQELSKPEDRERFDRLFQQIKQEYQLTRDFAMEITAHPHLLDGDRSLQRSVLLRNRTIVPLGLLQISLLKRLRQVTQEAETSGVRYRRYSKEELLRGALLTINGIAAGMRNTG
Source text: malate dehydrogenase-coupled NADH assay, residual activity on SyPEPC

AnPEPC = target: T2, AnPEPC (Nostoc sp. PCC 7120 = FACHB-418, UniProt P28594); assay: as above; type: biochemical; conditions: read-out: % activity remaining at 1 mM
T2 construct: gene ppc

SyPEPC [2] = target: T3, SyPEPC (Synechocystis sp. PCC 6803, UniProt P74299, E954K); assay: as above; type: biochemical; conditions: fumarate; allosteric
T3 construct: gene ppc

purified protein = substrate: O=C(O)O; assay: purified protein; conditions: PEP
[3] = substrate: C=C(OP(=O)(O)O)C(=O)O; assay: malate dehydrogenase-coupled NADH assay (A340), Lineweaver-Burk; type: biochemical, Nostoc sp. PCC 7120 = FACHB-418
[4] = substrate: C=C(OP(=O)(O)O)C(=O)O; assay: as above; type: biochemical, Synechocystis sp. PCC 6803

**Q.** How did the activity at 1000 µM (SyPEPC [1]) turn out when `O=C(O)C[C@H](O)C(=O)O` [malate] was run?
**A.** Its activity at 1000 µM is 77.1 ± 6.3%.

**Q.** And the remaining activity at 1000 µM (AnPEPC)?
**A.** Its remaining activity at 1000 µM is less than 30%.

**Q.** With `O=C(O)CCC(=O)O` [succinate] as the molecule, how does the activity at 1000 µM (SyPEPC [1]) read?
**A.** Its activity at 1000 µM is 124 ± 12.3%.

**Q.** What does the source list for `O=C(O)/C=C/C(=O)O` [fumarate]?
**A.** activity at 1000 µM (SyPEPC [1]): 75 ± 9.7%; % activity remaining (SyPEPC [2]): The inhibitory effect of fumarate was also enhanced in SyPEPC_E954K compared with SyPEPC

B1: AnPEPC (Nostoc sp. PCC 7120 = FACHB-418) (protein)
chain: MGSVLYSLSESANLYPASELFLRHRLQIVEELWESVLRQECGQNMVDLLRQLRDLCSPEGQATKDQAVSAVKLIEQLNINEAIRAARAFALYFQLINIIEQEYEQRQQLTRYSDLEAETAPLNGSENITSSSNHNEDDVIFNRGLGTDFLGKNWTNRGQGKQKGTFAALFPLLSKLNVPPQQIQRLISQLDVRLVFTAHPTEIVRHTIRDKQRQVVDLLQQLDEVENRAKDGGGYPWEAGEIREKLLEEIRLWWRTDELHQFKPTVLDEVDYALHYFQEVLFDGIPQLYKRFKYALNQTFSWLEPPSKDFCSFGSWVGSDRDGNPSVTPEITWQTACYQRKMVLERYIKSVTQLIELLSISMHWSDVLPDLLESLELDQSQLSEVYDALALRYRQEPYRLKLAYVLKRLENTRDRNLALYKGETPTNEDSPMYRSGSEFLAELRLIQHNLTETGLSCRELDNLICQVEIFDFNLTKLDIRQESTRHSDALNEILDYLQLLPQPYNDLSEEQRVAWLTTELQTRRPLISSELPFSDKTNDVIKTFRVVRSLQQEFGINICQTYIISMCRQVSDVLEVLLLAKEARLFDPAIAVGTIQVVPLFETVEDLQRSRSVMRQLFELPLYRALLAGGYKNTEVKVPNTELTPQSPAPSPQSVLTPDLQEVMLGYSDSNKDSGFLSSNWEIHKAQKSLQQIAEEYGVNLRIFHGRGGSVGRGGGPAHEAILAQPGHSINGRIKITEQGEVLASKYSLLDLALYNLETITTAVIQASLLRTGFDDIEPWNEIMEELAARSRQHYRGLIYEQPDFIDFFHQVTPIEEISQLQISSRPARRPSGKKDLSSLRAIPWVFSWTQTRFLLPSWYGVGTALQEFFNEEPEEHLKLMRYFYVKWPFFKMVISKVEMTLAKVDMQMAGHYVQELSDPEDKPRFEKVFEQIANEYYLTRDLVLKITDHGRLLDGDPVLQRSVQLRNGTIVPLGFIQVSLLKRLRQSKNNTATSGVIHSRYSKGELLRGALLTINGIAAGMRNTG
**Q.** B1 was tested. Which Km (purified protein; 10 mM MgCl2, pH and temperature not stated (optimum pH 8.0, 35 °C), pH 8.0, 35.0 °C) did it give?
**A.** Its Km is 240 µM.

**Q.** And the Km ([3]; 50 mM NaHCO3, 10 mM MgCl2, pH and temperature not stated (optimum pH 8.0, 35 °C))?
**A.** The Km was 1100 µM.

B2: AnPEPC (Nostoc sp. PCC 7120 = FACHB-418; K946E) (protein)
chain: MGSVLYSLSESANLYPASELFLRHRLQIVEELWESVLRQECGQNMVDLLRQLRDLCSPEGQATKDQAVSAVKLIEQLNINEAIRAARAFALYFQLINIIEQEYEQRQQLTRYSDLEAETAPLNGSENITSSSNHNEDDVIFNRGLGTDFLGKNWTNRGQGKQKGTFAALFPLLSKLNVPPQQIQRLISQLDVRLVFTAHPTEIVRHTIRDKQRQVVDLLQQLDEVENRAKDGGGYPWEAGEIREKLLEEIRLWWRTDELHQFKPTVLDEVDYALHYFQEVLFDGIPQLYKRFKYALNQTFSWLEPPSKDFCSFGSWVGSDRDGNPSVTPEITWQTACYQRKMVLERYIKSVTQLIELLSISMHWSDVLPDLLESLELDQSQLSEVYDALALRYRQEPYRLKLAYVLKRLENTRDRNLALYKGETPTNEDSPMYRSGSEFLAELRLIQHNLTETGLSCRELDNLICQVEIFDFNLTKLDIRQESTRHSDALNEILDYLQLLPQPYNDLSEEQRVAWLTTELQTRRPLISSELPFSDKTNDVIKTFRVVRSLQQEFGINICQTYIISMCRQVSDVLEVLLLAKEARLFDPAIAVGTIQVVPLFETVEDLQRSRSVMRQLFELPLYRALLAGGYKNTEVKVPNTELTPQSPAPSPQSVLTPDLQEVMLGYSDSNKDSGFLSSNWEIHKAQKSLQQIAEEYGVNLRIFHGRGGSVGRGGGPAHEAILAQPGHSINGRIKITEQGEVLASKYSLLDLALYNLETITTAVIQASLLRTGFDDIEPWNEIMEELAARSRQHYRGLIYEQPDFIDFFHQVTPIEEISQLQISSRPARRPSGKKDLSSLRAIPWVFSWTQTRFLLPSWYGVGTALQEFFNEEPEEHLKLMRYFYVKWPFFKMVISKVEMTLAKVDMQMAGHYVQELSDPEDKPRFEKVFEQIANEYYLTRDLVLEITDHGRLLDGDPVLQRSVQLRNGTIVPLGFIQVSLLKRLRQSKNNTATSGVIHSRYSKGELLRGALLTINGIAAGMRNTG
**Q.** What does the source list for B2?
**A.** Km (purified protein; 10 mM MgCl2): 250 µM; Km ([3]; 50 mM NaHCO3, 10 mM MgCl2): 800 µM

B3: SyPEPC (Synechocystis sp. PCC 6803 substr. Kazusa; E954K) (protein)
chain: MNLAVPAFGLSTNWSGNGNGSNSEEESVLYQRLKMVEELWERVLQSECGQELVDLLTELRLQGTHEAITSEISEEVIMGITQRIEHLELNDAIRAARAFALYFQLINIVEQHYEQNEQQRNRWEASQETNFYEQAGNEEEMVPPSRLGASTEPLPVGIDQNELQASVGTFHWLMRELKRLNVPPQHIQNLLDHLDIRLVITAHPTEIVRHTIRRKQRRVDRILRKLDQLQGSVTGRDWLNTWDAKTAIAQLTEEIRFWWRTDELHQFKPTVLDEVDYSLHYFDEVLFDAVPELSKRLGQAIKETFPHLRAPRANFCYFGSWVGGDRDGNPSVTPEVTWQTACYQRGLVLGKYLFSLGELVAILSPSLHWCKVSQELLDSLERDRIQLPEIYEELSLRYRQEPYRMKLAYVTKRLENTLRRNNRLANPEERQTMITMPAENHYRTGEELLEELRLIQRNLTETGLTCLELENLITQLEVYGFNLAQLDFRQESSRHAEAIAEIAEYMGVLTTPYEEMAEEDKLAWLGVELQTRRPLIPQEMPFSERTRETIETLRTLRHLQMEFGVDICQTYIISMTNDASDVLEVLLLAKEAGLYDPATASNSLRIVPLFETVEDLKNAPGIMDSLFSLPFYRATLAGSYHSLKELQNQPPDYYQIPTTTALLNPGNLQEIMVGYSDSNKDSGFLSSNWEIHKAQKSLQAVAQSHRVILRLFHGRGGSVGRGGGPAYKAILAQPAGTVDGRIKITEQGEVLASKYSLPELALYNLETLTTAVIQASLLKSSFDFIEPWNRIMEELACTARRAYRSLIYEEPDFLDFFLTVTPIPEISELQISSRPARRKGGKADLSSLRAIPWVFSWTQTRFLLPAWYGVGTALKSFVDQDPVKNMKLLRYFYFKWPFFNMVISKVEMTLSKVDLTIASHYVQELSKPEDRERFDRLFQQIKQEYQLTRDFAMKITAHPHLLDGDRSLQRSVLLRNRTIVPLGLLQISLLKRLRQVTQEAETSGVRYRRYSKEELLRGALLTINGIAAGMRNTG
**Q.** B3 was tested. Which Km (purified protein; 10 mM MgCl2) did it give?
**A.** The Km was 760 µM.

**Q.** And the Km ([4]; 50 mM NaHCO3, 10 mM MgCl2)?
**A.** The Km was 820 µM.

B4: SyPEPC (Synechocystis sp. PCC 6803 substr. Kazusa) (protein)
chain: MNLAVPAFGLSTNWSGNGNGSNSEEESVLYQRLKMVEELWERVLQSECGQELVDLLTELRLQGTHEAITSEISEEVIMGITQRIEHLELNDAIRAARAFALYFQLINIVEQHYEQNEQQRNRWEASQETNFYEQAGNEEEMVPPSRLGASTEPLPVGIDQNELQASVGTFHWLMRELKRLNVPPQHIQNLLDHLDIRLVITAHPTEIVRHTIRRKQRRVDRILRKLDQLQGSVTGRDWLNTWDAKTAIAQLTEEIRFWWRTDELHQFKPTVLDEVDYSLHYFDEVLFDAVPELSKRLGQAIKETFPHLRAPRANFCYFGSWVGGDRDGNPSVTPEVTWQTACYQRGLVLGKYLFSLGELVAILSPSLHWCKVSQELLDSLERDRIQLPEIYEELSLRYRQEPYRMKLAYVTKRLENTLRRNNRLANPEERQTMITMPAENHYRTGEELLEELRLIQRNLTETGLTCLELENLITQLEVYGFNLAQLDFRQESSRHAEAIAEIAEYMGVLTTPYEEMAEEDKLAWLGVELQTRRPLIPQEMPFSERTRETIETLRTLRHLQMEFGVDICQTYIISMTNDASDVLEVLLLAKEAGLYDPATASNSLRIVPLFETVEDLKNAPGIMDSLFSLPFYRATLAGSYHSLKELQNQPPDYYQIPTTTALLNPGNLQEIMVGYSDSNKDSGFLSSNWEIHKAQKSLQAVAQSHRVILRLFHGRGGSVGRGGGPAYKAILAQPAGTVDGRIKITEQGEVLASKYSLPELALYNLETLTTAVIQASLLKSSFDFIEPWNRIMEELACTARRAYRSLIYEEPDFLDFFLTVTPIPEISELQISSRPARRKGGKADLSSLRAIPWVFSWTQTRFLLPAWYGVGTALKSFVDQDPVKNMKLLRYFYFKWPFFNMVISKVEMTLSKVDLTIASHYVQELSKPEDRERFDRLFQQIKQEYQLTRDFAMEITAHPHLLDGDRSLQRSVLLRNRTIVPLGLLQISLLKRLRQVTQEAETSGVRYRRYSKEELLRGALLTINGIAAGMRNTG
**Q.** What does the source list for B4?
**A.** Km (purified protein; 10 mM MgCl2, pH 7.3, 30 °C, pH 7.3, 30.0 °C): 800 µM; Km ([4]; 50 mM NaHCO3, 10 mM MgCl2, pH 7.3, 30 °C): 340 µM
